Data taken from patent publication US20250250297A1, “CO-ASSEMBLED PEPTIDE GRANULES FOR INTRACELLULAR PROTEIN DELIVERY” (University of Florida Research Foundation, Incorporated, priority 2022, published 2025).
No end group written: not given here.

T1: mCATCH(-) peptide, Ac-EQEPEPEPEQE-Am
T1 construct: Proline residues replace the phenylalanine residues of CATCH(-); also called mutant of CATCH(-)
T1 peptide: Ac-EQEPEPEPEQE-NH2

B1: CATCH(-) peptide, Ac-EQEFEFEFEQE-Am (peptide)
peptide: Ac-EQEFEFEFEQE-NH2
notes: Synthetic anionic variant of Q11; also called CATCH(6-); CATCH (6-)
B2: CATCH(+) peptide, Ac-QQKFKFKFKQQ-Am (peptide)
peptide: Ac-QQKFKFKFKQQ-NH2
notes: Synthetic cationic variant of Q11; also called CATCH(4+); CATCH (4+)
B3: mCATCH(+) peptide, Ac-QQKPKPKPKQQ-Am (peptide)
peptide: Ac-QQKPKPKPKQQ-NH2
notes: Proline residues replace the phenylalanine residues of CATCH(+); also called mutant of CATCH(+)

Key:
[1] = aqueous media; cited from earlier work
cells = test: Delivery of granules comprising three co-assembling peptides; FACS sorting and NanoLuciferase activity; type: cell-based; details: for delivery into cells via granules of three co-assembling peptides: granules with CATCH(6+) and two distinct CATCH(6−) fusion peptides
Method: Therein, the ability of cells to take up granules comprising three co-assembling peptides (e.g., a CATCH(6+) and two distinct CATCH(6−) fusion peptides comprising different fluorescent or colorimetric markers) was tested. […] Subsequent fluorescent-activated cell sorting (FACS) procedures were used to sort GFP-positive cells.

[2] = Protein incorporation into macroscopic hydrogels (GFP retention under excess 1×PBS); type: physicochemical
Method: Macroscopic Hydrogel Formation. A 12 mM stock solution of CATCH(−) was prepared by dissolving dry peptide in 1×PBS and adjusting the pH to ˜7.6 with ammonium bicarbonate (Fisher). A 12 mM stock solution of CATCH(+) was prepared by dissolving dry peptide in 1×PBS and adjusting the pH to ˜7.2 with hydrochloric acid (0.5 N Fisher). CATCH peptide stock solutions were combined at a 1:1 (v/v) ratio in a 0.2 mL glass vial (Thermo), and the vial was gently swirled for 2 min until the hydrogel formed. The hydrogel was stained with red food coloring to aid visualization. Hydrogel images were recorded using a digital still camera.
Protein Incorporation into Macroscopic Hydrogels. […] Immediately after hydrogel formation, fluorescence was visualized by placing the glass vials on a SafeImager 2.0 transilluminator (Invitrogen) and recording images with a digital still camera. […] At various time points, fluorescence in the buffer supernatant was visualized by placing the glass vials on a SafeImager 2.0 transilluminator (Invitrogen) and recording images with a digital still camera. At the endpoint, buffer supernatant was carefully removed by decanting and fluorescence was visualized by placing the glass vials on a SafeImager 2.0 transilluminator (Invitrogen) and recording images with a digital still camera.

cells in vitro = test: Granule uptake compared to cell-penetrating peptide (L17E and Pep-1) uptake; CATCH(6+) titration; cell count; type: cell-based
[3] = Granule formation with molar excess of positive peptide: effect of concentration, ion content and pH; type: physicochemical; details: molar excess of CATCH(6+) relative to CATCH(6−)-GFP
Method: This example describes the effect on granule formation of using positive peptides in molar excess relative to negative peptides. Samples comprising molar excess of positive peptide (e.g., CATCH(6+)) relative to negative peptide (e.g., CATCH(6−)-GFP) were prepared and granule formation was measured after peptide co-assembly (see FIG. 61). […] Therein, the effect of sample ion content on granule formation was tested. Samples comprised 2 mM CATCH(6+) or CATCH(4+) and 30 μM CATCH(6−)-GFP.

[4] = biological target: the molecule itself; test: TEM; circular dichroism also showed predominantly random coil when incubated alone
[5] = biological target: B3; test: ThT fluorimetry, equimolar mixture in 1x PBS
Method: (§1) Thioflavin T (ThT) Assay. A ThT stock solution containing 0.8 mg/mL of thioflavin T (Acros) in 1× phosphate-buffered saline (PBS) (137 mM NaCl, 2.7 mM KCl, 10 mM Na₂HPO₄ and 1.8 mM KH₂PO₄, pH 7.4) was filtered through a 0.22 μm syringe filter (Millex), and further diluted 1:10 with 1×PBS to create a working solution. Peptide samples were mixed with the ThT working solution at a 1:10 (v/v) ratio, added to a black 96-well plate (Corning), and analyzed with a Molecular Devices SpectraMax M3 spectrophotometer (excitation 450, emission 482 nm). All samples were run in triplicate, with the mean and standard deviation of these samples reported.

[6] = biological target: T1, mCATCH(-) peptide, Ac-EQEPEPEPEQE-Am; test: ThT fluorimetry, equimolar mixture in 1x PBS
Method: as §1

[7] = biological target: T1, mCATCH(-) peptide, Ac-EQEPEPEPEQE-Am; test: ThT fluorimetry, kinetic analysis

Molecule: Ac-QQKFQFQFEQQ-Am (Ac-QQKFQFQFEQQ-NH2) [Q11]
concentration at which peptide self-assembles into β-sheet nanofibers [1]: ~10 µM

Molecule: CATCH(6−)-NanoLuciferase: CATCH(6−) fusion with NanoLuciferase (EQEFEFEFEQE; not fully specified (C-terminus); also: fusion with NanoLuciferase, not in chain)
NanoLuciferase activity in sorted GFP-positive cells (cells; after FACS, granules with CATCH(6−)-GFP and CATCH(6−)-NanoLuciferase): high levels
delivery into cells via granules of three co-assembling peptides (cells): successfully delivered into cells

Molecule: CATCH(6−)-mRuby: CATCH(6−) fusion peptide with fluorescent marker mRuby (EQEFEFEFEQE; not fully specified (C-terminus); also: fusion with mRuby, not in chain)
delivery into cells via granules of three co-assembling peptides (cells): delivered into cells

Molecule: CATCH(−)GFP: recombinant fusion of CATCH(−) and superfolder green fluorescent protein (GFP)
delivery into cells via granules of three co-assembling peptides (cells): delivered into cells
fluorescence of CATCH hydrogels after incubation under volumetric excess of 1×PBS ([2]; 48 h, hydrogel from 12 mM CATCH(+) and CATCH(−)): retained their fluorescence
GFP in the buffer layer over hydrogels ([2]; up to 48 h under excess 1×PBS): no GFP was detected

Molecule: KQKFKFKFKQK [CATCH(6+)]
effect of titration of peptide concentration on number of transduced cells (cells in vitro): enabled control on the number of transduced cells
granule size by scanning electron microscopy at higher positive peptide concentrations [3]: larger granules

Molecule: B1
binding result [4]: no binding
binding result [5]: no binding

Molecule: B2
binding result [4]: no binding
binding result [6]: no binding

Molecule: B3
binding result [7]: no binding
